For 2 substances, percent FRET positive cells results are on record in paper PMC3366918.

The target of experiment [1] is HIV-1 Rev wildtype, fused at its carboxy terminus to CFP (donor) or YFP (acceptor) (HIV-1 strain HXB3). In words: FRET or BRET. A general note: Bioluminescence resonance energy transfer reports proximity on the nanometre scale.
Experiment [2] addresses ZipRevSLT40: yeast GCN4 leucine zipper fused to the amino terminus of RevSLT40, with CFP or YFP at the carboxy terminus (yeast | HIV-1 strain HXB3). Description: FRET or BRET.

Regarding “HIV-1 Rev wildtype, fused at its carboxy terminus to CFP (donor) or YFP (acceptor) (natural protein)”, in experiment [1], the percent FRET positive cells is 80.3%.

Turning to “ZipRevSLT40: yeast GCN4 leucine zipper fused to the amino terminus of RevSLT40, with CFP or YFP at the carboxy terminus”, the percent FRET positive cells in experiment [2] is 41.9%.
